Our source for the glucagon agonism values is patent US20110257092A1 (INDIANA UNIVERSITY RESEARCH AND TECHNOLOGY, published 2011).

Ends that are not written are not given here. Where only a bound is given, the exact number is not on record here.

The assay concerns the target glucagon receptor (UniProt P47871 26-477, limits assumed). As to the kind of experiment: cell-based or functional assay.

glucagon receptor, sequence (P47871 26-477 limits assumed): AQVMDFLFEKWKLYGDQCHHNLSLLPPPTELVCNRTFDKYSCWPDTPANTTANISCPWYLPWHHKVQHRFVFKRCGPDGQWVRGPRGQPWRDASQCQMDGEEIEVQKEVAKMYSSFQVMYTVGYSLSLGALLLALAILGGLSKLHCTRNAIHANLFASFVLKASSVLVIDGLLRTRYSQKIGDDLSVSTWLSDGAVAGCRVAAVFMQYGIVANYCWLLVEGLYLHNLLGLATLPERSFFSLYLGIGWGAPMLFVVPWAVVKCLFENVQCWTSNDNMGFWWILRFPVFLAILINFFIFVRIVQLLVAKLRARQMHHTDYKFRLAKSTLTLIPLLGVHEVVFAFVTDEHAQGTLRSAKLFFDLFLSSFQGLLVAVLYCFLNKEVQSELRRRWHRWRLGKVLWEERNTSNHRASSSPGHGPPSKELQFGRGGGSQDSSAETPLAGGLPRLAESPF

Take HSEGTFTSDYSKYLDEQAAKEFIC(PEG 20 kDa)WLMNT (not fully specified (C-terminus)) [Peptide V]: the glucagon agonism was over 10 fold reduction.
